From US20250235548A1, “ANTIBODY-DRUG CONJUGATES TARGETING NAPI2B AND METHODS OF USE” (Zymeworks BC Inc., priority 2022, published 2025)
“Also recorded” adds a separate entry of the source.

Test system: NaPi2b-negative EBC-1 cells
Assay: Bystander activity, EBC-1 mono-culture vs co-culture with HCC-78 (Examples 19 and 34)
Assay type: cell-based
Details: for bystander activity (in words): 5 nM test article; for bystander activity (in words) / Average EBC-1 % viability in co-culture / Average EBC-1 % viability in mono-culture: 4 days
Method: The ability of v29456 ADCs to exert a bystander killing effect on cancer cells was assessed according to the method described below. Bystander killing can occur after target-specific uptake of an ADC into an antigen-positive cell. In this case, catabolism of the ADC results in release of payload or an active catabolite, which then crosses the cell membrane of nearby cells to elicit their death.
Cell lines used were HCC-78 (high NaPi2b expression) and EBC-1 (negative NaPi2b expression).
(§1) NaPi2b-positive HCC-78 and NaPi2b-negative EBC-1 cells were seeded either as mono-cultures or co-cultures in a 48-well plate at 15,000 cells and 5,000 cells, respectively, in 100 μL assay media (RPMI1640+10% FBS). ADCs were diluted to 10 nM in assay media and 100 μL was added to the cell-containing plates (5 nM final ADC concentration). Cells were incubated with ADCs for 4 days under standard culturing conditions (37° C./5% CO2). […] After incubation, cells were washed in FACS buffer, resuspended in 70 μL FACS buffer per well, and 35 μL per well were analyzed on a BD LSRFortessa™ Cell Analyzer (BD Biosciences, Franklin Lake, NJ). Dead cells were excluded by gating on YO—PRO®-1 staining. The number of HCC-78 and EBC-1 cells were determined by the number of events in the Alexa Fluor®647 positive (NaPi2b-positive) and Alexa Fluor®647 negative (NaPi2b-negative) gates, respectively. Percent viability was calculated as the number of cells in treatment condition divided by the number of cells in the no-treatment condition.
Bystander effect was calculated by comparing the viability of NaPi2b-negative EBC-1 cells treated as mono-culture (black bars) with that of the cells treated as a co-culture with NaPi2b-positive HCC-78 cells (grey bars). A greater decrease in viability in co-culture compared with mono-culture indicated a greater bystander effect.
Bystander killing can occur after target-specific uptake of an ADC into an antigen-positive cell, as described in Example 19. Cell lines used were HCC-78 (high NaPi2b expression) and EBC-1 (negative NaPi2b expression). Surface NaPi2b expression for these cell lines were measured as described in Example 15.
[…] […] The human antibody variant v29456 conjugated to MC-GGFG-AM-DXd1 was included as a positive control.
as §1, with “Briefly, NaPi2b-positive HCC-78” for “NaPi2b-positive HCC-78”, “10 nM or 40 nM in assay” for “10 nM in assay”, “plates (5 nM or 20 nM final” for “plates (5 nM final”, “resuspended in 60 μL FACS” for “resuspended in 70 μL FACS”, “cells in each treatment condition” for “cells in treatment condition”
Bystander effect was calculated by comparing the viability of NaPi2b-negative EBC-1 cells treated as mono-culture (black bars) with that of the cells treated as a co-culture with NaPi2b-positive HCC-78 cells (grey bars). A greater decrease in viability in co-culture compared with mono-culture indicates a greater bystander effect.

## palivizumab MC-GGFG-AM-DXd1: "palivizumab (v22277) MC-GGFG-AM-DXd1", negative control
  bystander activity (in words): negative bystander activity; also recorded: negligible bystander activity

## palivizumab MCvcPABC-MMAE: "palivizumab (v22277) MCvcPABC-MMAE", negative control
  bystander activity (in words): negative bystander activity; also recorded: negligible bystander activity

## v22277-MCvcPABC-MMAE: negative (non-NaPi2b targeting) controls palivizumab (v22277) MC-GGFG-AM-DXd and palivizumab (v22277) MCvcPABC-MMAE
5 nM ADC, co-culture with NaPi2b-positive HCC-78, relative to untreated blank
  Average EBC-1 % viability in co-culture: 95.8%
5 nM ADC, relative to untreated blank
  Average EBC-1 % viability in mono-culture: 86.4%
5 nM ADC, viability in mono-culture compared with co-culture
  % Bystander activity: −9.4%
5 nM, Biological Replicate 1
  % Bystander activity: 7.5%
5 nM, Biological Replicate 1, co-culture with HCC-78, relative to untreated blank
  Average EBC-1 % viability in co-culture: 81.7%
5 nM, Biological Replicate 1, relative to untreated blank
  Average EBC-1 % viability in mono-culture: 89.2%
20 nM, Biological Replicate 1
  % Bystander activity: 7.4%
20 nM, Biological Replicate 1, co-culture with HCC-78, relative to untreated blank
  Average EBC-1 % viability in co-culture: 84.1%
20 nM, Biological Replicate 1, relative to untreated blank
  Average EBC-1 % viability in mono-culture: 91.5%
